Target: GFP-Joka2 (tomato (SlJoka2))
Assay: FRET or BRET; FRET-FLIM in N. benthamiana leaves; donor GFP-Joka2, acceptors RFP fusions; GFP lifetime measured in GFP-JOKA2 aggregates

RFP-XopL (natural protein)
reduction of the donor's fluorescence lifetime: 0.1 ns

— publication PMC9251887
